Measured values published in patent publication US20220220164A1.

Target: maize RIP β-chain (second component of the gePSI), C-terminally fused to a murine ornithine decarboxylase (ODC36) degron (maize (Zea mays); murine) (UniProt P00860)
Test: cell-based or functional assay
Conditions: scale: normalized nascent protein signal

Sequence of UniProt P00860 (P00860 426-461, tags or fused parts left off): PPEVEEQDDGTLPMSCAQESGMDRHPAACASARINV

maize RIP α-chain (first component of the gePSI) (from UniProt P25891 22-161) (enzyme)
nascent protein signal of gePSI-transfected neurons after 4 h dox, normalized to the mean of neighboring untransfected neurons (FIG. 1g): 0.21
